Publication PMC6400556 (The Journal of Cell Biology, 2019)

T1: GST-FAPP1 full length (four-phosphate-adaptor-protein-1) (human, UniProt Q9HB20 1-300)
T1 sequence (looked up): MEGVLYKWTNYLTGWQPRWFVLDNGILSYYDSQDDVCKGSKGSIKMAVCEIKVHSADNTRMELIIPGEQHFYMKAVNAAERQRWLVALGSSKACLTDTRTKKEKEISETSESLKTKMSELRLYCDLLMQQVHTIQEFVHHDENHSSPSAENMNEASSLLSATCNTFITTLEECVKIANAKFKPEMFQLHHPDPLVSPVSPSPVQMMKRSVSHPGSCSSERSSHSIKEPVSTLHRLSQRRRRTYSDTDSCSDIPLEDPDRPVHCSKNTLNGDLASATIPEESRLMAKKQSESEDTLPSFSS

B1: His-Sac1 residues 1–188 (domain or fragment, human, UniProt Q9NTJ5 1-188, looked up)
chain: MATAAYEQLKLHITPEKFYVEACDDGADDVLTIDRVSTEVTLAVKKDVPPSAVTRPIFGILGTIHLVAGNYLIVITKKIKVGEFFSHVVWKATDFDVLSYKKTMLHLTDIQLQDNKTFLAMLNHVLNVDGFYFSTTYDLTHTLQRLSNTSPEFQEMSLLERADQRFVWNGHLLRELSAQPEVHRFALP
B2: GST-FAPP1 residues 1–100 (domain or fragment, human, UniProt Q9HB20 1-100, looked up)
chain: MEGVLYKWTNYLTGWQPRWFVLDNGILSYYDSQDDVCKGSKGSIKMAVCEIKVHSADNTRMELIIPGEQHFYMKAVNAAERQRWLVALGSSKACLTDTRT

Assays:
[1] = molecular target: T1, GST-FAPP1 full length …; assay: pull-down
[2] = molecular target: B1; assay: pull-down

Row | Binder | binding result [1] | binding result [2]
1 | B1 | binds | –
2 | B2 | – | binds
